The values below come from US8822661B2, “Xylose reductase mutants and uses thereof” (The Board of Trustees of the University of Illinois, priority 2007, dated 2014).

Where two headings read alike, the source gives them in different places.

For data set [1] the following is noted: cited from earlier work.
A short description of data set [2]: Kinetic characterization of purified mutant NcXRs, substrate D-xylose (NADPH oxidation at A340). The data set is classed as biochemical, Neurospora crassa. As for the experimental part:
(§1) NADPH concentration was kept >100 μM at all times, making it the non-rate-limiting reagent assuming no significant change in KM for mutants from the 1.8 μM for wild-type NcXR toward NADPH. All reactions were performed at pH 6.3 and 25° C., allowing for easy comparison to published data on wild-type NcXR. Initial reaction rate at each substrate concentration was measured by monitoring the rate of change at A340 upon addition of purified enzyme to the substrate mix. All readings were taken in at least two independent two data sets to minimize random error and eliminate experimental artifacts. […] Maximum reaction rates (kcat) were calculated based on molecular weight of dimeric NcXR.
(§2) Michaelis-Meten kinetic constants (KM, kcat) were determined. All reactions were performed at 25° C. in 50 mM MOPS buffer pH 6.3. NADPH concentration was kept >100 μM, usually between 100-400 μM and substrate concentrations were between 5 and 1500 mM for xylose and between 5 and 2000 mM for arabinose. Purified enzymes were kept on ice at all times to minimize thermal inactivation. Calculations were based on at least two independent datasets of two readings each, and were performed by least-squares fit method in Microcal Origin 5.0 (OriginLab Corporation, Northampton, Mass.). Substrate solutions were maintained at 25° C. in ThermoNESLAB RTE7 refrigerated water bath (Thermo Electron Corporation, Waltham, Mass.). A water-circulating jacketed the cuvette holder in Varian Cary 100 Bio UV-visible spectrophotometer (Varian, Palo Alto, Calif.). 500 μL substrate solution was added to a quartz cuvette with 10 mm path-length and mixed with 0.3-2 μg purified enzyme. Reaction rate was monitored as decrease in absorbance at 340 nm, corresponding to oxidation of NADPH (c=6220 M^−1 cm^−1) to NADP. Initial reaction rate was measured as the slope between 0.05 min and 0.25 min. Specific activity calculated for various substrate concentrations from initial reaction rates was used to calculate Michaelis-Menten constants.

Data set [3] is described as follows: Kinetic characterization of purified mutant NcXRs, substrate L-arabinose (NADPH oxidation at A340). The data set is classed as biochemical, Neurospora crassa. As for the experimental part:
as §1, §2

The conditions of data set [4]: XR of the named organism, cited from earlier work.
Where [5] appears, read: XR of the named organism, read-out: KM, NADPH.

B1: C. tenuis: xylose reductase (XR) from C. tenuis (protein, UniProt O74237 1-322, looked up)
NAD(P)H-dependent D-xylose …: MSASIPDIKLSSGHLMPSIGFGCWKLANATAGEQVYQAIKAGYRLFDGAEDYGNEKEVGDGVKRAIDEGLVKREEIFLTSKLWNNYHDPKNVETALNKTLADLKVDYVDLFLIHFPIAFKFVPIEEKYPPGFYCGDGNNFVYEDVPILETWKALEKLVAAGKIKSIGVSNFPGALLLDLLRGATIKPAVLQVEHHPYLQQPKLIEFAQKAGVTITAYSSFGPQSFVEMNQGRALNTPTLFAHDTIKAIAAKYNKTPAEVLLRWAAQRGIAVIPKSNLPERLVQNRSFNTFDLTKEDFEEIAKLDIGLRFNDPWDWDNIPIFV
In the case of B1, the Km (usually the concentration of substrate that gives half-maximal velocity) in data set [1] (setting [5]) was 4.8 µM.

B2: wt: wild-type xylose reductase from Neurospora crassa, SEQ ID NO: 1 (NCU 08384.1) (protein, listed as Neurospora crassa)
chain: MVPAIKLNSGFDMPQVGFGLWKVDGSIASDVVYNAIKAGYRLFDGACDYGNEVECGQGVARAIKEGIVKREELFIVSKLWNTFHDGDRVEPIVRKQLADWGLEYFDLYLIHFPVALEYVDPSVRYPPGWHFDGKSEIRPSKATIQETWTAMESLVEKGLSKSIGVSNFQAQLLYDLLRYAKVRPATLQIEHHPYLVQQNLLNLAKAEGIAVTAYSSFGPASFREFNMEHAQKLQPLLEDPTIKAIGDKYNKDPAQVLLRWATQRGLAIIPKSSREATMKSNLNSLDFDLSEEDIKTISGFDRGIRFNQPTNYFSAENLWIFG
Turning to B2, the “xylose over arabinose specificity, in words” value in data set [2] is “higher than twofold”. Further, the “Selectivity (xylose-to-arabinose)” value in data set [2] (ratio of catalytic efficiency between xylose and arabinose) came out at 2.4. For the same molecule, the “Catalytic Efficiency (relative)” value came out at 100% in data set [2] (substrate D-Xylose, relative to wt with D-xylose) and 41% in data set [3] (relative to wt with D-xylose). Further, the Km was 40000 µM in data set [3] (pH 6.3, 25° C., NADPH >100 μM); 34000 µM in data set [4] (read-out: KM, xylose); 1.8 µM in data set [1] (setting [5]); 1.8 µM in data set [1] (wild-type NcXR, published value, read-out: KM toward NADPH). Moreover, the kcat (usually the maximal rate divided by the concentration of active sites) is 30 s⁻¹ in data set [3] (pH 6.3, 25° C., based on dimeric NcXR) and 60 s⁻¹ in data set [4].

B3: S. cerevisiae: xylose reductase (XR) from S. cerevisiae (protein, UniProt P38715 2-327, looked up)
NADPH-dependent aldose …: SSLVTLNNGLKMPLVGLGCWKIDKKVCANQIYEAIKLGYRLFDGACDYGNEKEVGEGIRKAISEGLVSRKDIFVVSKLWNNFHHPDHVKLALKKTLSDMGLDYLDLYYIHFPIAFKYVPFEEKYPPGFYTGADDEKKGHITEAHVPIIDTYRALEECVDEGLIKSIGVSNFQGSLIQDLLRGCRIKPVALQIEHHPYLTQEHLVEFCKLHDIQVVAYSSFGPQSFIEMDLQLAKTTPTLFENDVIKKVSQNHPGSTTSQVLLRWATQRGIAVIPKSSKKERLLGNLEIEKKFTLTEQELKDISALNANIRFNDPWTWLDGKFPTFA
On to B3, for which the Km in data set [1] (setting [5]) is 7.6 µM.

B4: P. siptitus: xylose reductase (XR) from P. siptitus as printed (protein, UniProt P31867 1-318, looked up)
NAD(P)H-dependent D-xylose …: MPSIKLNSGYDMPAVGFGCWKVDVDTCSEQIYRAIKTGYRLFDGAEDYANEKLVGAGVKKAIDEGIVKREDLFLTSKLWNNYHHPDNVEKALNRTLSDLQVDYVDLFLIHFPVTFKFVPLEEKYPPGFYCGKGDNFDYEDVPILETWKALEKLVKAGKIRSIGVSNFPGALLLDLLRGATIKPSVLQVEHHPYLQQPRLIEFAQSRGIAVTAYSSFGPQSFVELNQGRALNTSPLFENETIKAIAAKHGKSPAQVLLRWSSQRGIAIIPKSNTVPRLLENKDVNSFDLDEQDFADIAKLDINLRFNDPWDWDKIPIFV
As to B4, the Km in data set [1] (setting [5]) is 9 µM.
